B1: DB-6: dimerization binder nanobody; CDRs RFSWGEE, WAATPWQ, DEWHIGHVS (SEQ ID NO: 25-27) (protein)
VHH: EVQLQASGGGFVQPGGSLRLSCAASGRFSWGEEMGWFRQAPGKEREFVSAISWAATPWQYYADSVKGRFTISRDNSKNTVYLQMNSLRAEDTATYYCADEWHIGHVSYWGQGTQVTVSS
modifications: left off: small tags and cut ends
B2: DB-11: dimerization binder nanobody; CDRs TTSDNDT, WNGGRDE, YQDNRSWQE (SEQ ID NO: 40-42) (protein)
VHH: EVQLQASGGGFVQPGGSLRLSCAASGTTSDNDTMGWFRQAPGKEREFVSAISWNGGRDEYYADSVKGRFTISRDNSKNTVYLQMNSLRAEDTATYYCAYQDNRSWQEYWGQGTQVTVSS
modifications: left off: small tags and cut ends
B3: CA-14: anchor binder nanobody; CDR1 SRSRQYD, CDR2 SNQDQPP, CDR3 FKQHHANGA (SEQ ID NO: 1-3) (protein)
VHH: EVQLQASGGGFVQPGGSLRLSCAASGSTSRQYDMGWFRQAPGKEREFVSAISSNQDQPPYYADSVKGRFTISRDNSKNTVYLQMNSLRAEDTATYYCAFKQHHANGAYWGQGTQVTVSS
modifications: left off: small tags and cut ends
B4: DB-21: dimerization binder nanobody; CDRs TTYGQTN, GLQGRDL, FHDFLRMWE (SEQ ID NO: 70-72) (protein)
VHH: EVQLQASGGGFVQPGGSLRLSCAASGTTYGQTNMGWFRQAPGKEREFVSAISGLQGRDLYYADSVKGRFTISRDNSKNTVYLQMNSLRAEDTATYYCAFHDFLRMWEYWGQGTQVTVSS
modifications: left off: small tags and cut ends
B5: DB-18: dimerization binder nanobody; CDRs GYSRADD, FGETDSF, YHNYTNMFE (SEQ ID NO: 61-63) (protein)
VHH: EVQLQASGGGFVQPGGSLRLSCAASGGYSRADDMGWFRQAPGKEREFVSAISFGETDSFYYADSVKGRFTISRDNSKNTVYLQMNSLRAEDTATYYCAYHNYTNMFEYWGQGTQVTVSS
modifications: left off: small tags and cut ends

Key:
Type in all cases: binding
[1] = tested on: CA-14-CBD complex; experiment: BLI of immobilized dimerization binders with CA-14 pre-equilibrated with CBD; settings: for Koff / Kon: CBD +
From the text: (§1) With the purified DB nanobodies in hand, we first sought to determine their binding affinities to the CA-14-CBD. CBD might directly bind to selected dimerization binders, which can affect the affinity measurement. To rule out this possibility, the four nanobodies were biotinylated (FIG. 7c) and immobilized on streptavidin biosensors, and the interaction with CBD was detected by BLI. Only minimal binding between CBD and the dimerization binders was detected (data not shown). Moreover, the binding-dissociation dynamics of the CA-14-CBD complex can also affect the measurement of dimerization binder affinities. To address this, the affinity was measured by a BLI assay in which the biosensor-immobilized dimerization binders were interacted with CA-14 pre-equilibrated with varied concentrations of CBD (FIG. 9a). The concentrations of the CA-14-CBD complex in equilibrium were calculated based on input CA-14 and CBD concentrations. The CA-14-CBD complex concentration was approximated to be constant because only a minimal fraction of the complex bound to the biosensor tips during the BLI assay. It was confirmed that CA-14 only interacts with the dimerization binders in the presence of CBD (FIG. 3a). The KDs of the four dimerization binders varied from 56.4 nM to 19 μM (Table 5).
The nanobody binding kinetics was analyzed using an Octet™ RED96 system (ForteBio) and Streptavidin (SA) or Super Streptavidin (SSA) biosensors. For the anchor-binder analysis, 200 nM biotinylated anchor binders were immobilized on SSA biosensors with a binding assay buffer (1×PBS, pH 7.4, 0.05% Tween 20, 0.2% BSA, 3% methanol; Note: because CBD and THC were dissolved in methanol to make stock solutions, 3% methanol was added to the buffer to fairly compare samples and controls). Serial dilutions of CBD and THC were used for the anchor binder assays. Dissociation constants (KDs) of anchor binder-ligand interactions were calculated based on a steady-state analysis using Octet™ RED96 data analysis software. For the dimerization-binder analysis, 200 nM biotinylated dimerization binders were immobilized on SA biosensors with the binding assay buffer and then assayed with 1 μM CA-14 pre-equilibrated with serial dilutions of CBD or THC. KDs, kons, and koffs of the interactions between anchor binder-ligand complexes and dimerization binders were calculated based on a heterogeneous ligand model global fit (2:1) of the data and simulated binding equilibria of the anchor binder and CBD described in Supplementary Notes.
In order to determine the binding kinetics of our nanobody CID system we performed a series of bio layer interferometry (BLI) experiments. In all experiments we used an Octet RED96 system (ForteBio) and Streptavidin Biosensors (ForteBio). 200 nM biotinylated protein (FIGS. 7b & 4C) were immobilized on biosensors (Super Streptavidin, SSA used for anchor binder; Streptavidin, SA used for dimerization binder) with a binding assay buffer (1×PBS, pH 7.4, 0.05% Tween 20, 0.2% BSA, 3% methanol; Note: because CBD and THC were dissolved in methanol to make stock solutions, 3% methanol was added to the buffer to fairly compare samples and controls). Ligand loading was followed by a quenching step using free biotin. All experiments were performed using four measurements to control for sensor drift and unspecific binding: • No ligand, no analyte • With ligand, no analyte • No ligand, with analyte • With ligand, with analyte
Next, we wanted to determine the binding affinity between CA-14 bound to CBD (referred to as CA-14*) and a panel of DBs. We observed no detectable binding between CA-14 and any of the DBs (FIG. 3a). We also rely on the observation that the DBs have weak binding to CBD, and therefore we can assume that only CA-14* binds the DB loaded to the sensor. We control the CA-14* concentration by using a fixed concentration of 1 μM CA-14 pre-incubated to equilibrium with six different concentrations of CBD. […]

[2] = Bio-Layer Interferometry (BLI) of immobilized anchor binders with unlabeled CBD or THC; settings: unlabeled CBD, anchor binder immobilized on Super Streptavidin biosensors, steady-state analysis, read-out: dissociation constants (KDs) of anchor binder to CBD
From the text: To confirm that the nanobody binding only requires CBD, and not the linker between CBD and biotin or the streptavidin, we measured the binding affinity using unlabeled CBD. Anchor-binder hits were expressed in E. coli periplasm and purified by nickel-affinity and size-exclusion chromatography (SEC). Purified nanobodies were enzymatically biotinylated (FIG. 7a-b) and immobilized on streptavidin biosensors to quantify binding affinities to CBD or THC by Bio-Layer Interferometry (BLI) (FIG. 8a).
The nanobody binding kinetics was analyzed using an Octet™ RED96 system (ForteBio) and Streptavidin (SA) or Super Streptavidin (SSA) biosensors. […] Dissociation constants (KDs) of anchor binder-ligand interactions were calculated based on a steady-state analysis using Octet™ RED96 data analysis software. […] KDs, kons, and koffs of the interactions between anchor binder-ligand complexes and dimerization binders were calculated based on a heterogeneous ligand model global fit (2:1) of the data and simulated binding equilibria of the anchor binder and CBD described in Supplementary Notes. […]
We first determined the binding affinity between the CBD anchor 14 (CA-14) and CBD via steady-state analysis (FIG. 8). […] We observed minimal binding between DBs and CBD, but the KDs are too weak to be determined (data not shown).

[3] = BLI of immobilized dimerization binders with CBD alone
From the text: as §1, with “It was confirmed that CA-14 only interacts with the dimerization binders in the presence of CBD (FIG. 3a). The KDs of the four dimerization binders varied from 56.4 nM to 19 μM (Table 5).” left out
We first determined the binding affinity between the CBD anchor 14 (CA-14) and CBD via steady-state analysis (FIG. 8). […] We observed minimal binding between DBs and CBD, but the KDs are too weak to be determined (data not shown). […]

Molecule	Koff [1]	Kon [1]	Kd [2] [µM]	Kd ([1]; BLI, CA-14* = CA-14 bound to CBD, read-out: CA-14*'s affinity to DB-21 (KBC/α)) [µM]	dissociation rate koff ([1]; CA-14 with CBD) [s⁻¹]	binding between CBD and the dimerization binders ([3]; BLI, CBD alone, data not shown)	Kd ([3]; worked out from KBC/α 56 nM with α=1,000 as a reasonable guess, read-out: KBC (DB-21's affinity to CBD)) [µM]
B1	1,820 10^−4s^−1	0.096 10^5 M^−1s^−1	–	–	–	–	–
B2	840 10^−4s^−1	0.61 10^5 M^−1s^−1	–	–	–	–	–
B3	–	–	6	–	–	–	–
B4	6.17 10^−4s^−1	0.11 10^5 M^−1s^−1	–	0.056	0.000617	very weakly	56
B5	227 10^−4s^−1	0.41 10^5 M^−1s^−1	–	–	–	–	–
